The numbers were not newly measured in patent US11608532B2, “Precision medicine for treating and preventing suicidality” (Indiana University Research and Technology Corporation, priority 2017, dated 2023), which cites them from elsewhere.

The series concerns individual top biomarkers for suicidality.

Like-named read-outs stand apart in the source and are kept apart here.

B1: siltuximab (antibody, chains of the INN, looked up, V domains shown)
VH: EVQLVESGGKLLKPGGSLKLSCAASGFTFSSFAMSWFRQSPEKRLEWVAEISSGGSYTYYPDTVTGRFTISRDNAKNTLYLEMSSLRSEDTAMYYCARGLWGYYALDYWGQGTSVTVSS
VL: QIVLIQSPAIMSASPGEKVTMTCSASSSVSYMYWYQQKPGSSPRLLIYDTSNLASGVPVRFSGSGSGTSYSLTISRMEAEDAATYYCQQWSGYPYTFGGGTKLEIK
With B1, the “IL6 modulated by drug in opposite direction to suicide” value (B. Top Biomarkers in Males, direction of change in suicidality I, AP/2) is recorded as “siltuximab”.

B2: Siltuximab (antibody, chains of the INN, looked up, V domains shown)
VH: B1 VH
VL: B1 VL
Consider B2, for which, for the setting “biomarker IL6 (interleukin 6)”, the “Step 6 Drugs that Modulate the Biomarker in Opposite Direction to Suicide” value is given as “Siltuximab”.

B3: certolizumab (antibody, chains of the INN, looked up, V domains shown)
VH: EVQLVESGGGLVQPGGSLRLSCAASGYVFTDYGMNWVRQAPGKGLEWMGWINTYIGEPIYADSVKGRFTFSLDTSKSTAYLQMNSLRAEDTAVYYCARGYRSYAMDYWGQGTLVTVSS
VL: DIQMTQSPSSLSASVGDRVTITCKASQNVGTNVAWYQQKPGKAPKALIYSASFLYSGVPYRFSGSGSGTDFTLTISSLQPEDFATYYCQQYNIYPLTFGQGTKVEIK
For the molecule B3, the “TNF modulated by drug in opposite direction to suicide” value (D. Top Biomarkers in Bipolar Disorder, direction of change in suicidality (I) DE/1, (I) AP/1) is recorded as “certolizumab,”.

B4: CAT-354 (antibody, chains of the INN, looked up, V domains shown)
VH: QVQLVQSGAEVKKPGASVKVSCKASGYTFTNYGLSWVRQAPGQGLEWMGWISANNGDTNYGQEFQGRVTMTTDTSTSTAYMELRSLRSDDTAVYYCARDSSSSWARWFFDLWGRGTLVTVSS
VL: SYVLTQPPSVSVAPGKTARITCGGNIIGSKLVHWYQQKPGQAPVLVIYDDGDRPSGIPERFSGSNSGNTATLTISRVEAGDEADYYCQVWDTGSDPVVFGGGTKLTVL
For the molecule B4, under “biomarker IL13 (interleukin 13)”, the “Step 6 Drugs that Modulate the Biomarker in Opposite Direction to Suicide” value is “CAT-354”.
